Experimental findings from patent publication US20020061306A1 are described below.

The assay concerns the target different strains of S. pyogenes (surface of the bacteria).

B1: α2-macroglobulin (native α2M) (protein, UniProt P01023 24-1474, looked up)
chain: SVSGKPQYMVLVPSLLHTETTEKGCVLLSYLNETVTVSASLESVRGNRSLFTDLEAENDVLHCVAFAVPKSSSNEEVMFLTVQVKGPTQEFKKRTTVMVKNEDSLVFVQTDKSIYKPGQTVKFRVVSMDENFHPLNELIPLVYIQDPKGNRIAQWQSFQLEGGLKQFSFPLSSEPFQGSYKVVVQKKSGGRTEHPFTVEEFVLPKFEVQVTVPKIITILEEEMNVSVCGLYTYGKPVPGHVTVSICRKYSDASDCHGEDSQAFCEKFSGQLNSHGCFYQQVKTKVFQLKRKEYEMKLHTEAQIQEEGTVVELTGRQSSEITRTITKLSFVKVDSHFRQGIPFFGQVRLVDGKGVPIPNKVIFIRGNEANYYSNATTDEHGLVQFSINTTNVMGTSLTVRVNYKDRSPCYGYQWVSEEHEEAHHTAYLVFSPSKSFVHLEPMSHELPCGHTQTVQAHYILNGGTLLGLKKLSFYYLIMAKGGIVRTGTHGLLVKQEDMKGHFSISIPVKSDIAPVARLLIYAVLPTGDVIGDSAKYDVENCLANKVDLSFSPSQSLPASHAHLRVTAAPQSVCALRAVDQSVLLMKPDAELSASSVYNLLPEKDLTGFPGPLNDQDNEDCINRHNVYINGITYTPVSSTNEKDMYSFLEDMGLKAFTNSKIRKPKMCPQLQQYEMHGPEGLRVGFYESDVMGRGHARLVHVEEPHTETVRKYFPETWIWDLVVVNSAGVAEVGVTVPDTITEWKAGAFCLSEDAGLGISSTASLRAFQPFFVELTMPYSVIRGEAFTLKATVLNYLPKCIRVSVQLEASPAFLAVPVEKEQAPHCICANGRQTVSWAVTPKSLGNVNFTVSAEALESQELCGTEVPSVPEHGRKDTVIKPLLVEPEGLEKETTFNSLLCPSGGEVSEELSLKLPPNVVEESARASVSVLGDILGSAMQNTQNLLQMPYGCGEQNMVLFAPNIYVLDYLNETQQLTPEIKSKAIGYLNTGYQRQLNYKHYDGSYSTFGERYGRNQGNTWLTAFVLKTFAQARAYIFIDEAHITQALIWLSQRQKDNGCFRSSGSLLNNAIKGGVEDEVTLSAYITIALLEIPLTVTHPVVRNALFCLESAWKTAQEGDHGSHVYTKALLAYAFALAGNQDKRKEVLKSLNEEAVKKDNSVHWERPQKPKAPVGHFYEPQAPSAEVEMTSYVLLAYLTAQPAPTSEDLTSATNIVKWITKQQNAQGGFSSTQDTVVALHALSKYGAATFTRTGKAAQVTIQSSGTFSSKFQVDNNNRLLLQQVSLPELPGEYSMKVTGEGCVYLQTSLKYNILPEKEEFPFALGVQTLPQTCDEPKAHTSFQISLSVSYTGSRSASNMAIVDVKMVSGFIPLKPTVKMLERSNHVSRTEVSSNHVLIYLDKVSNQTLSLFFTVLQDVPVRDLKPAIVKVYDYYETDEFAIAEYNAPCSKDLGNA
In turn, B1 registered a % of added radiolabeled α2M bound of 0 to 76%.
